PMC10614411, “Endometrial cancer (EC) derived G3BP1 overexpression and mutant promote EC tumorigenesis and metastasis via SPOP/ERα axis” (Cell Communication and Signaling : CCS, 2023)

Target: T1, FLAG-G3BP1 Q392*, bacterially expressed (UniProt Q13283 1-391, Q392*)
T1 construct: The bacterial expression construct is not described in the methods; source: bacterially expressed
Assay: pull-down; GST fusion protein fixed on glutathione-Sepharose beads, incubated with recombinant FLAG-labeled proteins for 2 h, washed 5 times, Western blot with anti-FLAG
Settings: both partners purified

T1 sequence (Q13283 1-391, stated change not applied): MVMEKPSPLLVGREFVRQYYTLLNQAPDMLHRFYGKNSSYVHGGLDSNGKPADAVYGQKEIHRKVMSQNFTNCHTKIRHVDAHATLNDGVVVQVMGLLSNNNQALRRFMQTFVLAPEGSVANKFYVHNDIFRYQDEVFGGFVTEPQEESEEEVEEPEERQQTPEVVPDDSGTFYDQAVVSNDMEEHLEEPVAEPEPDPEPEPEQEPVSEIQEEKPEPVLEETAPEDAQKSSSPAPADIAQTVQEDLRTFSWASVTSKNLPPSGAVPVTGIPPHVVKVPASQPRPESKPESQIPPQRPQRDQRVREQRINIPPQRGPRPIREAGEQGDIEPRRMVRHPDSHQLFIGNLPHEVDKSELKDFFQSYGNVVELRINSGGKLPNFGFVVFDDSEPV

binding result: binds
B1: GST-SPOP, bacterially expressed (natural protein, UniProt O43791 1-374, looked up)
chain: MSRVPSPPPPAEMSSGPVAESWCYTQIKVVKFSYMWTINNFSFCREEMGEVIKSSTFSSGANDKLKWCLRVNPKGLDEESKDYLSLYLLLVSCPKSEVRAKFKFSILNAKGEETKAMESQRAYRFVQGKDWGFKKFIRRDFLLDEANGLLPDDKLTLFCEVSVVQDSVNISGQNTMNMVKVPECRLADELGGLWENSRFTDCCLCVAGQEFQAHKAILAARSPVFSAMFEHEMEESKKNRVEINDVEPEVFKEMMCFIYTGKAPNLDKMADDLLAAADKYALERLKVMCEDALCSNLSVENAAEILILADLHSADQLKTQAVDFINYHASDVLETSGWKSMVVSHPHLVAEAYRSLASAQCPFLGPPRKRLKQS
notes: SPOP as a GST fusion protein; The bacterial expression construct is not described in the methods
